From article PMC4600075, “Rapid kit-based ^68Ga-labelling and PET imaging with THP-Tyr^3-octreotate: a preliminary comparison with DOTA-Tyr^3-octreotate” (EJNMMI Research, 2015)

How the values were obtained:
[1] = PET scanning, tumour to organ/background ratios; conditions: Balb/c nude, mouse, in vivo, iv, 1 ug, total radioactivity, PET images 1 h PI, ±SEM, n = 3
Description: (§1) All animal experiments were performed with approval from the Peter MacCallum animal ethics committee. Six- to eight-week-old Balb/c nude mice (Animal Resources Centre, Western Australia) were implanted subcutaneously on the right flank with three million AR42J cells (sourced from ATCC). Once the tumours reached a volume >150 mm^3, the animals (n = 3) were injected intravenously with 23–28 MBq [^68Ga(THP-TATE)] (containing 1 μg of THP-TATE). For blocking studies, animals (n = 3) were coinjected with Tyr^3-octreotate peptide (400 μg). For [^68Ga(DOTATATE)], the animals (n = 3) were injected with 8 MBq of the tracer (containing 1 μg of DOTATATE). At 1 h, the animals were anaesthetised and imaged on a Philips MOSAIC small animal PET scanner. The images were reconstructed using a 3D RAMLA algorithm and tracer uptake determined as described previously. On completion of the scan, animals were euthanised and tissues harvested, weighed and radioactivity counted using a gamma counter (Biomedex). Quantitation of PET images was performed using in-house software (MARVn 3.31). Regions of interest were drawn around tissues of interest and uptake ratio calculated as the maximum pixel intensity in the tumour divided by the average uptake in a mediastinal background region, liver or kidneys, as appropriate.

Ex vivo biodistribution = conditions: Balb/c nude, mouse, in vivo, iv, 1 ug, total radioactivity, 1 h PI, ex vivo gamma counting, n = 3, ±SEM
Description: as §1

[2] = tested on: SSTR2-positive AR42J tumours; assay: Ex vivo biodistribution; conditions: 1 h PI, i.v., ex vivo gamma counting; n = 3, ±SEM
Description: as §1

## C[C@@H](O)[C@H](NC(=O)[C@@H]1CSSC[C@H](NC(=O)[C@@H](Cc2ccccc2)NC(=O)CN2CCN(CC(=O)O)CCN(CC(=O)O)CCN(CC(=O)O)CC2)C(=O)N[C@@H](Cc2ccc(O)cc2)C(=O)N[C@H](Cc2c[nH]c3ccccc23)C(=O)N[C@@H](CCCCN)C(=O)N[C@@H]([C@@H](C)O)C(=O)N1)C(=O)O [[^68Ga(DOTATATE)], metal not drawn]
[1]; Tumour to kidney ratio, maximum tumour pixel intensity / average organ uptake
  tissue to tissue ratio at 1 h: 5.7 ± 0.2
[1]; Tumour to liver ratio
  tissue to tissue ratio at 1 h: 27.2 ± 3.9
Ex vivo biodistribution; AR42J tumour uptake
  tissue uptake at 1 h: 14.4 ± 0.8 %ID/g
Ex vivo biodistribution; kidney retention
  tissue uptake at 1 h: 5.6 ± 0.5 %ID/g
[2]
  blood retention: 0.3 ± 0.1 %ID g^−1
